# Source: PMC5493634, “Intermolecular steric inhibition of Ephexin4 is relieved by Elmo1” (Scientific Reports, 2017)
# Target: the molecule itself
# Assay: cross-linking; 293T cells transfected with Ephexin4-FLAG, cells incubated with or without 0.25 mM BMH (PBS pH 7.3, 5 mM EDTA) at room temperature for 1 h, then lysed; anti-FLAG immunoblot (Fig. 2d)
protein,measurement,value
"Ephexin4 (full-length, wild type) (natural protein, UniProt Q5VV41 1-709, looked up, Ephexin4, guanine nucleotide-exchange factor for RhoG; full-length; also called Epx4; Ephexin4-FLAG) MAQRHSDSSLEEKLLGHRFHSELRLDAGGNPASGLPMVRGSPRVRDDAAFQPQVPAPPQPRPPGHEEPWPIVLSTESPAALKLGTQQLIPKSLAVASKAKTPARHQSFGAAVLSREAARRDPKLLPAPSFSLDDMDVDKDPGGMLRRNLRNQSYRAAMKGLGKPGGQGDAIQLSPKLQALAEEPSQPHTRSPAKNKKTLGRKRGHKGSFKDDPQLYQEIQERGLNTSQESDDDILDESSSPEGTQKVDATIVVKSYRPAQVTWSQLPEVVELGILDQLSTEERKRQEAMFEILTSEFSYQHSLSILVEEFLQSKELRATVTQMEHHHLFSNILDVLGASQRFFEDLEQRHKAQVLVEDISDILEEHAEKHFHPYIAYCSNEVYQQRTLQKLISSNAAFREALREIERRPACGGLPMLSFLILPMQRVTRLPLLMDTLCLKTQGHSERYKAASRALKAISKLVRQCNEGAHRMERMEQMYTLHTQLDFSKVKSLPLISASRWLLKRGELFLVEETGLFRKIASRPTCYLFLFNDVLVVTKKKSEESYMVQDYAQMNHIQVEKIEPSELPLPGGGNRSSSVPHPFQVTLLRNSEGRQEQLLLSSDSASDRARWIVALTHSERQWQGLSSKGDLPQVEITKAFFAKQADEVTLQQADVVLVLQQEDGWLYGERLRDGETGWFPEDFARFITSRVAVEGNVRRMERLRVETDV",stoichiometry N,3
